Data: patent US20080051562

How the values were obtained:
[1] = system: PEG-TMB (TMB conjugated at the C-terminal azido-methionine analog to methyl-PEG-triarylphosphine conjugate 2 by Staudinger ligation)
[2] = system: TMA (truncated human thrombomodulin EGF-like domains 4-6, Met-388-Leu, C-terminal GlyGlyMet linker, expressed as an N-terminal Dsba enzyme fusion with leader sequence)
[3] = system: TMB (truncated human thrombomodulin derivative, EGF-like domains 4-6, Met-388-Leu, C-terminal GlyGlyMet linker with azido-methionine analog)
[4] = biological target: recombinant human Thrombomodulin (soluble truncated form that lacks the putative transmembrane and the cytoplasmic domains, approximate weight 68 kD; American Diagnostica Inc.) (UniProt P07204)
Chain of recombinant human Thrombomodulin (soluble truncated form that lacks the putative transmembrane and the cytoplasmic domains, approximate weight 68 kD; American Diagnostica Inc.) (P07204 whole entry, looked up, the tested form may be a part): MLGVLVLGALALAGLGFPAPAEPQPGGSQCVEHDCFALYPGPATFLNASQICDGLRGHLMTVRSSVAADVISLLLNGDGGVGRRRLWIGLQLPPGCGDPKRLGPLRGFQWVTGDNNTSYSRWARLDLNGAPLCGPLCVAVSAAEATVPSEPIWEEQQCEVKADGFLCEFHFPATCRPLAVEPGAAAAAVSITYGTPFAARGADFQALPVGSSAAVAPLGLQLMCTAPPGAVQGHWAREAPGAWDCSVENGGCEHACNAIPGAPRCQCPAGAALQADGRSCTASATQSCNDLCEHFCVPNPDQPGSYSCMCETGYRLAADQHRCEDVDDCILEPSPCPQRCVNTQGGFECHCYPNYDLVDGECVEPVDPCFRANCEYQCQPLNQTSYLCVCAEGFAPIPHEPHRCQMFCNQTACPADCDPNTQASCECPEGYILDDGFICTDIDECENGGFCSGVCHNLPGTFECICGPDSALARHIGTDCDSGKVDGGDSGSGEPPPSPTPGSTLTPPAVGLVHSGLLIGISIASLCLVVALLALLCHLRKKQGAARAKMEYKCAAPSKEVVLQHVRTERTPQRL

Q: Which KM (µM) for protein C activation by the TM-thrombin complex [1] does the source give for “human alpha thrombin (Haematologic Technologies Inc.)” here?
A: 1 µM

Q: And the kcat (min^-1) for protein C activation by the TM-thrombin complex [1]?
A: 0.2 min⁻¹

Q: What about the kcat/KM (min^-1 · µM^-1) for protein C activation by the TM-thrombin complex (min^-1 · µM^-1) [1] of the same substance?
A: 0.2

Q: And the KM (µM) for protein C activation by the TM-thrombin complex [2]?
A: 0.9 µM

Q: What about the kcat (min^-1) for protein C activation by the TM-thrombin complex [2] of the same substance?
A: 0.22 min⁻¹

Q: And the kcat/KM (min^-1 · µM^-1) for protein C activation by the TM-thrombin complex (min^-1 · µM^-1) [2]?
A: 0.26

Q: What about the KM (µM) for protein C activation by the TM-thrombin complex [3] of the same substance?
A: 1 µM

Q: And the kcat (min^-1) for protein C activation by the TM-thrombin complex [3]?
A: 0.16 min⁻¹

Q: What about the kcat/KM (min^-1 · µM^-1) for protein C activation by the TM-thrombin complex (min^-1 · µM^-1) [3] of the same substance?
A: 0.16

Q: What about the KM (µM) for protein C activation by the TM-thrombin complex [4] of the same substance?
A: 0.7 µM

Q: And the kcat (min^-1) for protein C activation by the TM-thrombin complex [4]?
A: 0.14 min⁻¹

Q: What about the kcat/KM (min^-1 · µM^-1) for protein C activation by the TM-thrombin complex (min^-1 · µM^-1) [4] of the same substance?
A: 0.21
